B1: Pistol ribozyme (parent)
chain: GGGUCGUUGUUCCAUAAUCGCGUGGAUAUGGCACGCAAGUUUCUACCGGGCACCGUAAAUGUCCGACUGGAGCCGUUCGGGCGGCUAUAAACAGACCUCAGGCCCGAAGCGUGGCGGCACCUGCCGCCGGUGGUAAAAAAGAUCGGAAGAGCACACGUCU

Variants of: B1
Experiment: aptazyme ON/OFF ratio, guanine; higher = stronger switching; co-transcriptional cleavage with and without guanine

Question: For GGGUCGACCAUCCAUAAUCGCGUGGAUAUGGCACGCAAGUUUCUACCGGGCACCGUAAAUGUCCGACUGGAGCCGUUCGGGCGGCUAUAAACAGACCUCAGGCCCGAAGCGUGGCGGCACCUGCCGCCGGUGGUAAAAAAGAUCGGAAGAGCACACGUCU, which “aptazyme ON/OFF ratio” value is on record?
Answer: 1.17

Question: Which “aptazyme ON/OFF ratio” value does the source give for GGGUCGACCAUGAAUAAUCGCGUGGAUAUGGCACGCAAGUUUCUACCGGGCACCGUAAAUGUCCGACUGGAGCCGUUCGGGCGGCUAUAAACAGACCUCAGGCCCGAAGCGUGGCGGCACCUGCCGCCGGUGGUAAAAAAGAUCGGAAGAGCACACGUCU here?
Answer: 1.1

Question: With GGGUCGACCAUGGAUAAUCGCGUGGAUAUGGCACGCAAGUUUCUACCGGGCACCGUAAAUGUCCGACUGGAGCCGUUCGGGCGGCUAUAAACAGACCUCAGGCCCGAAGCGUGGCGGCACCUGCCGCCGGUGGUAAAAAAGAUCGGAAGAGCACACGUCU as the variant, how does the “aptazyme ON/OFF ratio” value read?
Answer: 1.14

Question: Which “aptazyme ON/OFF ratio” value does the source give for GGGUCGACCAUGUAUAAUCGCGUGGAUAUGGCACGCAAGUUUCUACCGGGCACCGUAAAUGUCCGACUGGAGCCGUUCGGGCGGCUAUAAACAGACCUCAGGCCCGAAGCGUGGCGGCACCUGCCGCCGGUGGUAAAAAAGAUCGGAAGAGCACACGUCU here?
Answer: 1.17

Question: With GGGUCGACCUUUAAUAAUCGCGUGGAUAUGGCACGCAAGUUUCUACCGGGCACCGUAAAUGUCCGACUGGAGCCGUUCGGGCGGCUAUAAACAGACCUCAGGCCCGAAGCGUGGCGGCACCUGCCGCCGGUGGUAAAAAAGAUCGGAAGAGCACACGUCU as the variant, how does the “aptazyme ON/OFF ratio” value read?
Answer: 1.08

Question: Which “aptazyme ON/OFF ratio” value does the source give for GGGUCGACCUUUUAUAAUCGCGUGGAUAUGGCACGCAAGUUUCUACCGGGCACCGUAAAUGUCCGACUGGAGCCGUUCGGGCGGCUAUAAACAGACCUCAGGCCCGAAGCGUGGCGGCACCUGCCGCCGGUGGUAAAAAAGAUCGGAAGAGCACACGUCU here?
Answer: 1.14

Question: With GGGUCGACCUUUGAUAAUCGCGUGGAUAUGGCACGCAAGUUUCUACCGGGCACCGUAAAUGUCCGACUGGAGCCGUUCGGGCGGCUAUAAACAGACCUCAGGCCCGAAGCGUGGCGGCACCUGCCGCCGGUGGUAAAAAAGAUCGGAAGAGCACACGUCU as the variant, how does the “aptazyme ON/OFF ratio” value read?
Answer: 1.06

Question: With GGGUCGACCUUUCAUAAUCGCGUGGAUAUGGCACGCAAGUUUCUACCGGGCACCGUAAAUGUCCGACUGGAGCCGUUCGGGCGGCUAUAAACAGACCUCAGGCCCGAAGCGUGGCGGCACCUGCCGCCGGUGGUAAAAAAGAUCGGAAGAGCACACGUCU as the variant, how does the “aptazyme ON/OFF ratio” value read?
Answer: 1.06

Question: For GGGUCGACCUUCGAUAAUCGCGUGGAUAUGGCACGCAAGUUUCUACCGGGCACCGUAAAUGUCCGACUGGAGCCGUUCGGGCGGCUAUAAACAGACCUCAGGCCCGAAGCGUGGCGGCACCUGCCGCCGGUGGUAAAAAAGAUCGGAAGAGCACACGUCU, which “aptazyme ON/OFF ratio” value is on record?
Answer: 1.06

Question: With GGGUCGACCUUCAAUAAUCGCGUGGAUAUGGCACGCAAGUUUCUACCGGGCACCGUAAAUGUCCGACUGGAGCCGUUCGGGCGGCUAUAAACAGACCUCAGGCCCGAAGCGUGGCGGCACCUGCCGCCGGUGGUAAAAAAGAUCGGAAGAGCACACGUCU as the variant, how does the “aptazyme ON/OFF ratio” value read?
Answer: 1.07

Question: For GGGUCGACCUUCUAUAAUCGCGUGGAUAUGGCACGCAAGUUUCUACCGGGCACCGUAAAUGUCCGACUGGAGCCGUUCGGGCGGCUAUAAACAGACCUCAGGCCCGAAGCGUGGCGGCACCUGCCGCCGGUGGUAAAAAAGAUCGGAAGAGCACACGUCU, which “aptazyme ON/OFF ratio” value is on record?
Answer: 1.07

Question: For GGGUCGACCAAACAUAAUCGCGUGGAUAUGGCACGCAAGUUUCUACCGGGCACCGUAAAUGUCCGACUGGAGCCGUUCGGGCGGCUAUAAACAGACCUCAGGCCCGAAGCGUGGCGGCACCUGCCGCCGGUGGUAAAAAAGAUCGGAAGAGCACACGUCU, which “aptazyme ON/OFF ratio” value is on record?
Answer: 1.09

Question: For GGGUCGACCAAGCAUAAUCGCGUGGAUAUGGCACGCAAGUUUCUACCGGGCACCGUAAAUGUCCGACUGGAGCCGUUCGGGCGGCUAUAAACAGACCUCAGGCCCGAAGCGUGGCGGCACCUGCCGCCGGUGGUAAAAAAGAUCGGAAGAGCACACGUCU, which “aptazyme ON/OFF ratio” value is on record?
Answer: 1.13

Question: For GGGUCGACCAAUCAUAAUCGCGUGGAUAUGGCACGCAAGUUUCUACCGGGCACCGUAAAUGUCCGACUGGAGCCGUUCGGGCGGCUAUAAACAGACCUCAGGCCCGAAGCGUGGCGGCACCUGCCGCCGGUGGUAAAAAAGAUCGGAAGAGCACACGUCU, which “aptazyme ON/OFF ratio” value is on record?
Answer: 1.07

Question: With GGGUCGACCAAAAAUAAUCGCGUGGAUAUGGCACGCAAGUUUCUACCGGGCACCGUAAAUGUCCGACUGGAGCCGUUCGGGCGGCUAUAAACAGACCUCAGGCCCGAAGCGUGGCGGCACCUGCCGCCGGUGGUAAAAAAGAUCGGAAGAGCACACGUCU as the variant, how does the “aptazyme ON/OFF ratio” value read?
Answer: 1.05

Question: Which “aptazyme ON/OFF ratio” value does the source give for GGGUCGACCAAAUAUAAUCGCGUGGAUAUGGCACGCAAGUUUCUACCGGGCACCGUAAAUGUCCGACUGGAGCCGUUCGGGCGGCUAUAAACAGACCUCAGGCCCGAAGCGUGGCGGCACCUGCCGCCGGUGGUAAAAAAGAUCGGAAGAGCACACGUCU here?
Answer: 1.05

Question: With GGGUCGACCAAAGAUAAUCGCGUGGAUAUGGCACGCAAGUUUCUACCGGGCACCGUAAAUGUCCGACUGGAGCCGUUCGGGCGGCUAUAAACAGACCUCAGGCCCGAAGCGUGGCGGCACCUGCCGCCGGUGGUAAAAAAGAUCGGAAGAGCACACGUCU as the variant, how does the “aptazyme ON/OFF ratio” value read?
Answer: 1.08

Question: For GGGUCGACCAUUGAUAAUCGCGUGGAUAUGGCACGCAAGUUUCUACCGGGCACCGUAAAUGUCCGACUGGAGCCGUUCGGGCGGCUAUAAACAGACCUCAGGCCCGAAGCGUGGCGGCACCUGCCGCCGGUGGUAAAAAAGAUCGGAAGAGCACACGUCU, which “aptazyme ON/OFF ratio” value is on record?
Answer: 1.07
